The values that follow come from US20240409617A1.

The assay addresses WT Spike (SARS-CoV2).

B1: Ab_18 scFv-Fc (scFv, V domains shown)
VH: EVQLVQSGGGVVQPGRSLRVSCAASGFSFSRYGMHWVRQAPGKGLEWVAFIRHDGSKKYYADSVEGRFTISRDNSRNTVSLEMNSLRGEDTAVYYCAKDGRLEAALDDWGQGTLVTVSS
VL: NFMLTQPHSMSGSAGKTVTVSCIRSSGSIANNFVQWYQQRPGSAPTTVIYEDNQRPSGVPDRFSGSIDSSSNSASLTISGLKTEDEADYYCQSYDSSNLVFGGGTRLTVL
Broadly, the Kd is a measure of binding affinity in units of concentration. Molecule B1 had an equilibrium dissociation constant (Kd) of 9.07 pM and a Response of 0.216.

B2: S1-R3-T1-C4 (Ab_8) scFv-Fc (scFv, V domains shown)
VH: QVQLVQSGAEVKKPGSSVKVSCKASGGTFSSYAISWLRQAPGQGLEWMGWINPNSGGTNYAQKFQGRVTMTRDTSISTAYMELSRLRSDDTAVYYCARGSGGYYLGWGQGTLVTVSS
VL: QPGLTQPPSVSKGLRQTATLTCTGNSNNVGNQGAAWLQQHQGHPPKLLSYMNNNRPPGISERFSASRSGNTASLTITGLQPEDEADYYCSAWDSSLSRWVFGGGTKLSVL
Take B2: the Kd was 7.15 pM and the Response turned out to be 0.118.

B3: Ab_26 scFv-Fc (scFv, V domains shown)
VH: QVQLVQSGGGLVQPGRSLRLSCAASGFTFDDYAMHWVRQVPGKGLEWVSGIDWNSGVIGYADSVKGRFTISRDNAKNSLYLQMNSLRAEDTALYYCAKDAYSYGFLGAFDIWGQGTMVTVSS
VL: LPVLTQPPSVSVAPGQTASITCGGDNIRTKGVHWYQQKPGQAPLLVIYYASDRPSGIPERFSGSSSGNTATLTISRVEAGDEADYYCQVWDSSSDLVVFGGGTTLTVL
As to B3, the Kd came out at 11 pM and the Response turned out to be 0.185.

B4: Ab_23 scFv-Fc (scFv, V domains shown)
VH: EVQLVQSGAEVKKPGSSVKVSCRSSGGTFSTYGITWVRQAPGQGLEWMGRIIPSLGIPNYAQKFQGRVTITADTSVSTAWMELSSLESDDTAIYYCARENIDLATNDFWGQGTLVTVSS
VL: QSALTQPPSASGSPGQSVTISCTGTSRDIGAYGYVSWYQQVPGKAPKLIIYEVRNRPSGVSSRFSGSKSGNTASLTISGLQAEDEADYYCSSYTSSSTLDVVFGGGTKLTVL
As for B4, the Kd is 8.84 pM and the Response was found to be 0.0845.

B5: Ab_16 scFv-Fc (scFv, V domains shown)
VH: QVQLVQSGGGVVQPGRSLRLSCAASGFTFSNYGMHWVRQAPGKGLEWVALIWERGSKKDYADSVKGRFTVSRDNSKNTLYLQMNSLRPEDTAVYFCAREGISMTGAEYFQHWGQGTLVTVSS
VL: QSVLTQPPSVSGSPGQRVTMSCTGSSSNIGAGYDVHWYQQVPGAAPRLLIYGTNNRPSGVPDRFSGSKSGTSASLTITGLQAEDEADYYCQSYDNSLTDPYVFGTGTKVTVL
As to B5, the Kd was 11.8 pM and the Response was determined as 0.346.

B6: Ab_27 scFv-Fc (scFv, V domains shown)
VH: QVQLVQSGTEVKKPGASVKVSCKASGYSFTGSHLHWVRQAPGQGLEWMGWINPDSGVINYAQKFQGRVTLTRDTSISTAYMELSGLRSDDTAVYYCARDKAIGYVWALDYWGQGTLVTVSS
VL: QSALTQPPSVSGSPGQSVTISCTGTSSDVGTYNRVSWYQQPPGKAPKLMIYEVSNRPSGVSNRFSGSKSGNTASLTISGLQAEDEADYYCSSYTRTFTYVFGTGTKVTVL
In turn, B6 yielded a Kd of 8.78 pM and a Response of 0.202.

B7: Ab_17 scFv-Fc (scFv, V domains shown)
VH: QVQLVQSGGGVVQPGRSLRLSCAASGFTFDDYAMHWVRQVPGKGLEWVSGIDWNSGVIGYADSVKGRFTISRDNVKNSLYLQMNSLRTEDSALYYCAKDIGPGGSGSYYAFDIWGQGTTVTVSS
VL: QSALTQPASVSGSPGQSITISCTGTSSDVGGSKYVSWYQQHPGKAPKVMIYDVTKRPSGVPDRFSGSKSGNTASLTISGLQAEDEADYYCAAWDDSLNGVVFGGGTKLTVL
For B7, the Kd turned out to be 6.35 pM and the Response was 0.248.

B8: Ab_19 scFv-Fc (scFv, V domains shown)
VH: EVQLVESGAEVKKPGESLKISCKGSGYSFTSYWIGWVRQMPGKGLEWMGIIYPGDSDTRYSPSFQGQVTISADKSISTAYLQWSSLKASDTAMYYCARRGDLDAFDIWGQGTMVTVSS
VL: QPGLTQPPAASGTPGQRVTVSCSGASANIGSNAVSWFKQFPETAPRLLISGNTHRPSGVPDRVSGSKSGTSASLTISGLQSDDEADYYCAAWDDSLNGYVFGSGTKVTVL
B8: the Kd came to 8.9 pM and the Response amounted to 0.121.

B9: S1-RBD-R3-T1-F5 (Ab2-7) scFv-Fc (scFv, V domains shown)
VH: QVTLKESGPTRVKPTQTLTLTCTFSGFSLSTTGVGVGWIRQPPGKALEWLALIYWNDDKRYSPSLKSRLTITKDTSKNQVVLTMTNMDPVDTATYYCARISGSGYFYPFDIWGQGTTVTVSS
VL: NFMLTQPHSVSESPGKTVTISCTRSSGSIASNYVQWYQQRPGSSPTTVIYEDNQRPSGVPDRFSGSIDSSSNSASLTISGLKAEDEADYYCQSYDSSSLWVFGGGTKLTVL
B9 returned an equilibrium dissociation constant (Kd) of 7.85 pM and a Response of 0.0672.

B10: Ab_25 scFv-Fc (scFv, V domains shown)
VH: QVQLVQSGGGLVQPGGSLRLSCAASGFTFSSYWMSWVRQAPGKGLEWVANIKQDGSEKYYVDSVKGRFTISRDNAKNSLYLQMNSLRAEDTAVYYCARGFYYYGAFDIWGQGTTVTVSS
VL: NFMLTQPHSVSESPGKTVTISCTGSSGSIASNYVQWYQQRPGSAPTTVIYEDNQRPSGVPDRFSGSIGSSSNSASLTISGLKTEDEADYYCQSYDSSNHWVFGGGTKLTVL
The molecule B10 came in with a Kd of 8.9 pM and a Response of 0.0219.

B11: Ab_13 scFv-Fc (scFv, V domains shown)
VH: QVTLKESGPKLVKPTQTLTLTCTFSGFSLSTSGVGVGWIRQPPGKALEWLALIYWDDDKRYSPSLKSRLTIAKDTSKYQVVLTMTNMDPVDTATYYCARISGSGYFYPFDIWGQGTMVTVSA
VL: NFMLTQPHSVSESPGKTVTISCTRSSGSIASNYVQWYQQRPGSAPTTVIYEDNQRPSGVPDRFSGSIDSSSNSASLTISGLKTEDEADYYCQSYDSSNLWVFGGGTKLTVL
B11 came in with a Kd of 8.55 pM and a Response of 0.0732.

B12: Ab_20 scFv-Fc (scFv, V domains shown)
VH: QVQLVQSGGGSVKPGGSLRLSCAASGYRLSDYYMHWVRQAPGKGLEWVANIKQDGSEKYYVDSVKGRFTISRDNAKNSLYLQMNSLRAEDTAVYYCARVRGWSRGYFDYWGQGTLVTVSS
VL: NFMLTQPHSVSESPGKTVTISCTGSSGSIASNYVQWYQQRPGSAPTTVIYEDNQRPSGVPDRFSGSIDSSSNSASLLISGLKTEDEADYYCQSYDSSNHWVFGGGTKLTVL
B12 had a Kd of 9.01 pM and a Response of 0.0985.

B13: Ab_14 scFv-Fc (scFv, V domains shown)
VH: QVQLQQSGPGLVKPSQTLSLTCAISGDSVSSNSAAWNWIRQSPARGLEWLGRTYYRSRWYNDYAISMKSRITINPDTSKNQFSLQLESVTPEDTAVYYCAREIRGFDYWGQGTLVTVSS
VL: QSVLTQPPSASGSPGQSVTISCTGTSSDVGAYNFVSWYQHHPGKAPKLIIYDFNKRPSGVPDRFSGSKSGNTASLTVSGLQADDEADYYCSSYAGSNNFDVVFGGGTKLTVL
As to B13, the Kd stood at 8.22 pM and the Response is 0.313.

B14: Ab_21 scFv-Fc (scFv, V domains shown)
VH: QVQLVQSGGGLVQPGGSLRLSCATSGFTFDDYAMHWVRQAPGKGLEWVSGISWNSGSIGYVDSVKGRFTISRDNRNNKVYLQMNNLRAEDTAVYYCARDWWGSIDHWGLGTLVTVSS
VL: QSALTQPRSVSGSPGQSVTISCTGTSSDVGGYDYVSWYQQHPGKAPKLIIYDVSKRPSGVPDRFSGSKSGNTASLTVSGLQAEDEADYYCSSYTSSSPVVFGGGTKLTVL
On to B14, for which the Kd was determined as 9.25 pM and the Response stood at 0.147.
